± gives the uncertainty stated by the source.
Assay: self-splicing fitness, log relative to wild type (ln ratio); higher = more splicing; Tetrahymena group I intron in knt gene, E. coli kanamycin selection, DiMSum; sequences stand for … in CUCUCU…GGAGGGAAAAGUUAUCAGGCAUGCACCUGGUAGCUAGUCUUUAAACCAAUAGAUUGCAUCGGUUUAAAAGGCAAGACCGUCAAAUUGCGGGAAAGGGGUCAACAGCCGUUCAGUACCAAGUCUCAGGGGAAACUUUGAGAUGGCCUUGCAAAGGGUAUGGUAAUAAGCUGACGGACAUGGUCCUAACCACGCAGCCAAGUCCUAAGUCAACAGAUCUUCUGUUGAUAUGGAUGCAGUUCACAGACUAAAUGUCGGUCGGGGAAGAUGUAUUCUUCUCAUAAGAUAUAGUCGGACCUCUCCUUAAUGGGAGCUAGCGGAUGAAGUGAUGCAACACUGGAGCCGCUGGGAACUAAUUUGUAUGCGAAAGUAUAUUGAUUAGUUUUGGAGUACUCGUGGUCG
In short: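 The eight P1ex-region nucleotides of an intron in the knt kanamycin-resistance gene on pET-22b(+) were all randomised and the library put into E. coli BL21(DE3). Six replicate transformations were grown overnight at 37°C or 30°C on LB agar with or without 25 μg/mL kanamycin, together with 100 μg/mL carbenicillin, 50 μM IPTG and 0.2% rhamnose. Colonies were pooled and amplicon-sequenced on an Illumina HiSeq 2500. Fitness from DiMSum is the error-weighted combination of wild-type-normalised replicate fold changes, kanamycin over none.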

| Sequence | self-splicing fitness (ln) (30 °C) | self-splicing fitness (ln) (37 °C) |
| --- | --- | --- |
| ACCGAGCAAUAUUACGAUAA | -3.72 ± 0.23 | -2.01 ± 0.2 |
| ACCGAGCAAUAUUACGAUAU | -3.68 ± 0.18 | -1.54 ± 0.14 |
| ACCGAGCAAUAUUACGAUCG | -3.05 ± 0.33 | -1.64 ± 0.27 |
| ACCGAGCAAUAUUACGAUGA | -2.47 ± 0.17 | -2.73 ± 0.28 |
| ACCGAGCAAUAUUACGAUUU | -2.41 ± 0.11 | -0.954 ± 0.11 |
| ACCGAGCAAUAUUACGCAGC | -4.02 ± 0.47 | -2.84 ± 0.48 |
| ACCGAGCAAUAUUACGCAUG | -2.69 ± 0.13 | -2.47 ± 0.21 |
| ACCGAGCAAUAUUACGCGAA | -2.33 ± 0.32 | -3.17 ± 0.4 |
| ACCGAGCAAUAUUACGCUUC | -2.06 ± 0.36 |  |
| ACCGAGCAAUAUUACGGACC | -1.29 ± 0.082 | -0.293 ± 0.092 |
| ACCGAGCAAUAUUACGGACG | -2.21 ± 0.15 | 0.0411 ± 0.13 |
| ACCGAGCAAUAUUACGGAGU | -3.72 ± 0.25 | -2.11 ± 0.18 |
| ACCGAGCAAUAUUACGGCAC | -2.07 ± 0.14 | -1.76 ± 0.27 |
| ACCGAGCAAUAUUACGGUCU | -3.36 ± 0.1 | -1.62 ± 0.092 |
| ACCGAGCAAUAUUACGUCGA | -3.13 ± 0.24 | -2.12 ± 0.15 |
| ACCGAGCAAUAUUACGUGAC | -4.19 ± 0.34 | -1.4 ± 0.15 |
| ACCGAGCAAUAUUACGUGCG | -1.64 ± 0.082 | -1.37 ± 0.13 |
| ACCUAGCAAUAUUACGACCU | -1.26 ± 0.1 | 0.455 ± 0.12 |
| ACCUAGCAAUAUUACGAGGC | -1.58 ± 0.18 | -2.64 ± 0.25 |
| ACCUAGCAAUAUUACGAUCA | -1.23 ± 0.17 | -1.19 ± 0.18 |
| ACCUAGCAAUAUUACGAUCU | -0.35 ± 0.079 | 0.0427 ± 0.1 |
| ACCUAGCAAUAUUACGAUGU | -0.605 ± 0.045 | 0.0835 ± 0.065 |
| ACCUAGCAAUAUUACGCAAA | -2.56 ± 0.3 | -1.76 ± 0.18 |
| ACCUAGCAAUAUUACGCACC | -1.24 ± 0.14 | 0.276 ± 0.16 |

| Sequence | self-splicing fitness (ln) (30 °C) | self-splicing fitness (ln) (37 °C) |
| --- | --- | --- |
| ACCUAGCAAUAUUACGCACG | -0.85 ± 0.099 | 0.0662 ± 0.12 |
| ACCUAGCAAUAUUACGCAGC | -1.43 ± 0.095 | -1.46 ± 0.12 |
| ACCUAGCAAUAUUACGCAUU | -1.42 ± 0.051 | -0.377 ± 0.056 |
| ACCUAGCAAUAUUACGCCAU | -3.51 ± 0.27 | -1.21 ± 0.19 |
| ACCUAGCAAUAUUACGCGAG | -3.54 ± 0.15 | -1.55 ± 0.11 |
| ACCUAGCAAUAUUACGCGAU | -2.32 ± 0.078 | -0.981 ± 0.087 |
| ACCUAGCAAUAUUACGCGUU | -2.76 ± 0.099 | -0.77 ± 0.085 |
| ACCUAGCAAUAUUACGGAAC | -3.04 ± 0.24 |  |
| ACCUAGCAAUAUUACGGCAA | -1.41 ± 0.17 | 0.02 ± 0.14 |
| ACCUAGCAAUAUUACGGCAU | -0.00618 ± 0.076 | 0.451 ± 0.09 |
| ACCUAGCAAUAUUACGGGUA | -1.76 ± 0.12 | -1.19 ± 0.088 |
| ACCUAGCAAUAUUACGGUCC | -2.82 ± 0.15 | -2 ± 0.15 |
| ACCUAGCAAUAUUACGUACC | -1.59 ± 0.099 | -0.156 ± 0.11 |
| ACCUAGCAAUAUUACGUAGA | -2.73 ± 0.16 | -2.49 ± 0.21 |
| ACCUAGCAAUAUUACGUAGG | -3.59 ± 0.2 | -2.93 ± 0.21 |
| ACCUAGCAAUAUUACGUCGU | -0.733 ± 0.045 | -0.455 ± 0.059 |
| ACCUAGCAAUAUUACGUGUG | -1.28 ± 0.057 | -0.808 ± 0.064 |
| ACGAAGCAAUAUUACGAAAG | -3.2 ± 0.12 | -2.32 ± 0.16 |
| ACGAAGCAAUAUUACGACAG | -1.59 ± 0.11 | -0.583 ± 0.13 |
| ACGAAGCAAUAUUACGACUC | -1.12 ± 0.072 | -0.0297 ± 0.088 |
| ACGAAGCAAUAUUACGAGGC | -3.62 ± 0.21 | -1.81 ± 0.16 |
| ACGAAGCAAUAUUACGAUAG | -3.09 ± 0.23 | -1.87 ± 0.21 |
| ACGAAGCAAUAUUACGAUGC | -3.28 ± 0.21 | -2.01 ± 0.37 |
| ACGAAGCAAUAUUACGCAAC | -3.3 ± 0.25 | -2.38 ± 0.39 |

| Sequence | self-splicing fitness (ln) (30 °C) | self-splicing fitness (ln) (37 °C) |
| --- | --- | --- |
| ACGAAGCAAUAUUACGCAGA | -1.42 ± 0.12 | -1.1 ± 0.14 |
| ACGAAGCAAUAUUACGCUUC | -3.44 ± 0.19 | -2.59 ± 0.2 |
| ACGAAGCAAUAUUACGGAAA | -2.38 ± 0.17 | -3.02 ± 0.21 |
| ACGAAGCAAUAUUACGGAAU | -3.14 ± 0.12 | -1.34 ± 0.1 |
| ACGAAGCAAUAUUACGGAUA | -3.55 ± 0.32 | -2.43 ± 0.23 |
| ACGAAGCAAUAUUACGGGGA | -2.81 ± 0.21 | -1.57 ± 0.16 |
| ACGAAGCAAUAUUACGGUAA | -2.49 ± 0.17 | -1.33 ± 0.14 |
| ACGAAGCAAUAUUACGGUCA | -1.35 ± 0.14 | -0.053 ± 0.13 |
| ACGAAGCAAUAUUACGUACG | -3.8 ± 0.33 | -0.988 ± 0.15 |
| ACGAAGCAAUAUUACGUCAC | -4.98 ± 0.39 | -2.43 ± 0.16 |
| ACGAAGCAAUAUUACGUCGU | -3.41 ± 0.29 | -3.5 ± 0.42 |
| ACGAAGCAAUAUUACGUGUC | -3.76 ± 0.15 | -2.7 ± 0.17 |
| ACGAAGCAAUAUUACGUUAC | -3.77 ± 0.4 | -1.17 ± 0.16 |
| ACGAAGCAAUAUUACGUUUA | -2.05 ± 0.11 | -0.875 ± 0.085 |
| ACGCAGCAAUAUUACGAAAA | -2.91 ± 0.23 | -2.7 ± 0.2 |
| ACGCAGCAAUAUUACGAAGU | -3.6 ± 0.27 | -0.721 ± 0.13 |
| ACGCAGCAAUAUUACGACAG | -1.11 ± 0.076 | -0.445 ± 0.099 |
| ACGCAGCAAUAUUACGACUU | -0.543 ± 0.077 | 0.0674 ± 0.09 |
| ACGCAGCAAUAUUACGAGUC | -4.93 ± 0.27 | -2.26 ± 0.18 |
| ACGCAGCAAUAUUACGAGUG | -2.14 ± 0.052 | -1.32 ± 0.062 |
| ACGCAGCAAUAUUACGAUAG | -4.2 ± 0.21 | -2.65 ± 0.19 |
| ACGCAGCAAUAUUACGCAAC | -3.91 ± 0.32 | -1.83 ± 0.18 |
| ACGCAGCAAUAUUACGCACC | -0.334 ± 0.18 | -0.22 ± 0.18 |
| ACGCAGCAAUAUUACGCAGG |  | -1.05 ± 0.15 |

| Sequence | self-splicing fitness (ln) (30 °C) | self-splicing fitness (ln) (37 °C) |
| --- | --- | --- |
| ACGCAGCAAUAUUACGCAGU | -3.29 ± 0.16 | -2.78 ± 0.21 |
| ACGCAGCAAUAUUACGCAUA | -2.18 ± 0.13 | -0.994 ± 0.12 |
| ACGCAGCAAUAUUACGCGGC | -3.37 ± 0.17 | -3.06 ± 0.25 |
| ACGCAGCAAUAUUACGCUCA | -0.563 ± 0.063 | 0.124 ± 0.088 |
| ACGCAGCAAUAUUACGCUGC | -3.38 ± 0.43 | -3.02 ± 0.29 |
| ACGCAGCAAUAUUACGGCCG | -1.66 ± 0.11 | -0.0837 ± 0.15 |
| ACGCAGCAAUAUUACGGGAG | -2.73 ± 0.11 | -1.62 ± 0.11 |
| ACGCAGCAAUAUUACGGGUC | -4.12 ± 0.21 | -2.92 ± 0.17 |
| ACGCAGCAAUAUUACGGUCA | -1.15 ± 0.069 | -0.339 ± 0.069 |
| ACGCAGCAAUAUUACGUAAA | -2.06 ± 0.12 | -1.95 ± 0.2 |
| ACGCAGCAAUAUUACGUAAU | -2.48 ± 0.083 | -2.13 ± 0.12 |
| ACGCAGCAAUAUUACGUCCG | -0.744 ± 0.085 | -0.408 ± 0.1 |
| ACGCAGCAAUAUUACGUUAG | -4.1 ± 0.16 | -2.46 ± 0.12 |
| ACGGAGCAAUAUUACGAAAU | -2.71 ± 0.22 | -1.76 ± 0.24 |
| ACGGAGCAAUAUUACGAAGA |  | -0.799 ± 0.24 |
| ACGGAGCAAUAUUACGAAUG | -3.88 ± 0.43 | -0.307 ± 0.27 |
| ACGGAGCAAUAUUACGACAC | -4.35 ± 0.42 | -1.94 ± 0.37 |
| ACGGAGCAAUAUUACGCAAG | -3.14 ± 0.27 | -1.79 ± 0.26 |
| ACGGAGCAAUAUUACGCACG | -3.77 ± 0.35 | -2.71 ± 0.37 |
| ACGGAGCAAUAUUACGCAUA | -3.27 ± 0.21 | -2.86 ± 0.22 |
| ACGGAGCAAUAUUACGGCCG | -1.98 ± 0.16 | -2.03 ± 0.28 |
| ACGGAGCAAUAUUACGGCUA | -1.96 ± 0.21 | -0.548 ± 0.14 |
| ACGGAGCAAUAUUACGGCUU | -3.11 ± 0.4 |  |
| ACGGAGCAAUAUUACGGGAA | -4.37 ± 0.36 | -2.03 ± 0.31 |

Source: the supplement of paper PMC7877785
